For the test, the target named is Myeloperoxidase (Homo sapiens, UniProt P05164). Description: SPR. (In general: Surface plasmon resonance follows binding to a sensor surface in real time, without labels.)
Sequence of Myeloperoxidase (P05164 165-273): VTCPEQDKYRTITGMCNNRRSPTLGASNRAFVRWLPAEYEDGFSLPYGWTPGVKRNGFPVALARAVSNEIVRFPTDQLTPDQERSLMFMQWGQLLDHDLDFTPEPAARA

As for VPNHFNAP [VPNHFNAP peptide], the Kd (in general, the equilibrium constant for the complex coming apart) was 183 µM.

Values taken from PMC12583094 (2025).
